Consider six variants from IntAct's records for PubMed 26278177.

B1: DNA repair protein complementing XP-C cells (Homo sapiens), Q01831-1 (parent)
chain: MARKRAAGGEPRGRELRSQKSKAKSKARREEEEEDAFEDEKPPKKSLLSKVSQGKRKRGCSHPGGSADGPAKKKVAKVTVKSENLKVIKDEALSDGDDLRDFPSDLKKAHHLKRGATMNEDSNEEEEESENDWEEVEELSEPVLGDVRESTAFSRSLLPVKPVEIEIETPEQAKTRERSEKIKLEFETYLRRAMKRFNKGVHEDTHKVHLLCLLANGFYRNNICSQPDLHAIGLSIIPARFTRVLPRDVDTYYLSNLVKWFIGTFTVNAELSASEQDNLQTTLERRFAIYSARDDEELVHIFLLILRALQLLTRLVLSLQPIPLKSATAKGKKPSKERLTADPGGSSETSSQVLENHTKPKTSKGTKQEETFAKGTCRPSAKGKRNKGGRKKRSKPSSSEEDEGPGDKQEKATQRRPHGRERRVASRVSYKEESGSDEAGSGSDFELSSGEASDPSDEDSEPGPPKQRKAPAPQRTKAGSKSASRTHRGSHRKDPSLPAASSSSSSSKRGKKMCSDGEKAEKRSIAGIDQWLEVFCEQEEKWVCVDCVHGVVGQPLTCYKYATKPMTYVVGIDSDGWVRDVTQRYDPVWMTVTRKCRVDAEWWAETLRPYQSPFMDREKKEDLEFQAKHMDQPLPTAIGLYKNHPLYALKRHLLKYEAIYPETAAILGYCRGEAVYSRDCVHTLHSRDTWLKKARVVRLGEVPYKMVKGFSNRARKARLAEPQLREENDLGLFGYWQTEEYQPPVAVDGKVPRNEFGNVYLFLPSMMPIGCVQLNLPNLHRVARKLDIDCVQAITGFDFHGGYSHPVTDGYIVCEEFKDVLLTAWENEQAVIERKEKEKKEKRALGNWKLLAKGLLIRERLKRRYGPKSEAAAPHTDAGGGLSSDEEEGTSSQAEAARILAASWPQNREDEEKQKLKGGPKKTKREKKAAASHLFPFEQL

Variants of B1 are the subject of one test. To be noted: with tf2h1_human GTF2H1, P32780.
Chain of tf2h1_human GTF2H1, P32780 (P32780 whole entry): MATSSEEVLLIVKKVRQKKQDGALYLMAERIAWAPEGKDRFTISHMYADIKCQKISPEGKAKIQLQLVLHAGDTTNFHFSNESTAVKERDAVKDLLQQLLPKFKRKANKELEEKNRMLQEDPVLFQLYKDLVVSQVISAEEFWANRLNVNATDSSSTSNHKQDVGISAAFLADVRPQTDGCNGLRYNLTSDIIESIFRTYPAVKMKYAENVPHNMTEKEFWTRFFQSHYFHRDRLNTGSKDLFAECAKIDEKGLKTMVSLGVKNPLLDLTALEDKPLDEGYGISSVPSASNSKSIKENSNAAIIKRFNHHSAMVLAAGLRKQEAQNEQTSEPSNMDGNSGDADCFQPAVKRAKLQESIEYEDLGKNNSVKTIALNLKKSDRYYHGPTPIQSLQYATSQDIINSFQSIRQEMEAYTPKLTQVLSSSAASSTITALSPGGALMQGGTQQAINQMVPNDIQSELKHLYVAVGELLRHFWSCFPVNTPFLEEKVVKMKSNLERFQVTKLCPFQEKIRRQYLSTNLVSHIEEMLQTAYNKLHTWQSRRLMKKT
Consider E128A, for which the “effect of a mutation on the interaction” value was “decreasing interaction strength”. For the variant W133A, the “effect of a mutation on the interaction” value is recorded as “disrupting interaction strength”. Same read-out and setting: next, W133F: “decreasing interaction strength”. Same read-out and setting: next, V136A: “decreasing interaction strength”; L139A: “decreasing interaction strength”.

The variants in another test derive from B1. To be noted: with ercc3_human ERCC3, P19447.
Chain of ercc3_human ERCC3, P19447 (P19447 whole entry): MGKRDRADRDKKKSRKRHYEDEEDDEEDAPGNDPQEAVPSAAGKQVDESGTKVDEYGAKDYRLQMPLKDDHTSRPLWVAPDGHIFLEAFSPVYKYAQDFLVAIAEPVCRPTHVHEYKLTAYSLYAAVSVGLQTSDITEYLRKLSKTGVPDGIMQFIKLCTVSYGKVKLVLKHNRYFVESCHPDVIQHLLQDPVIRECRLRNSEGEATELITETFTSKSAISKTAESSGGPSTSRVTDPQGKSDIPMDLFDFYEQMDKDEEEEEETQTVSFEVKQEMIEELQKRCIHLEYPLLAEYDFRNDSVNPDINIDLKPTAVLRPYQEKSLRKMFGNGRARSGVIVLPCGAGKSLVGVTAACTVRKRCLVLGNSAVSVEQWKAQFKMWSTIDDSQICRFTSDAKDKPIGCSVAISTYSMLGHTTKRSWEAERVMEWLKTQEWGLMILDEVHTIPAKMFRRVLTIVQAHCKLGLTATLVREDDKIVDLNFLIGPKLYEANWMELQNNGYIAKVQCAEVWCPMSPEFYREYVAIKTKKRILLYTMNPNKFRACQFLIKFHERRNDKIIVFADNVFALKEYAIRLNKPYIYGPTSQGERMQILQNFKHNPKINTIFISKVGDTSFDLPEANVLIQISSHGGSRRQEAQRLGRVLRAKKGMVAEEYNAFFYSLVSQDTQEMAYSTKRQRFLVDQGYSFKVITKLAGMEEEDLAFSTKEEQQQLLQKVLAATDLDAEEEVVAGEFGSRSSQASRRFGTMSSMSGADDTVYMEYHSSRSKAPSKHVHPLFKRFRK
As for W133A, the “effect of a mutation on the interaction” value is on record as “decreasing interaction strength”.

As to W133A;V136A, the “effect of a mutation on the interaction” value is “decreasing interaction strength”. Same read-out and setting: the same measure for V136A: “decreasing interaction strength”.
